This experiment has as its target reconstituted XPO1:RanGTP nuclear export receptor complex (human | yeast (ScRan), UniProt O14980 1-1071; P32835 1-179, Q71L). The experiment in a line: fluorescence polarisation.

The term Kd denotes the concentration at which binding is half-saturated.

B1: POU4F3 P125L(114-134) peptide (peptide)
peptide: {5(6)‑carboxyfluorescein}-GLEGDLLEHISLTLSVSGLGA-NH2
Regarding B1, the binding result is reported as “binds”.

B2: ETV6 P214L(203-222) peptide (peptide)
peptide: {5(6)‑carboxyfluorescein}-SPLDNMIRRLSLAERAQGPR-NH2
As for B2, binding was characterised by a dissociation constant (Kd) of 261 nM.

The values above are taken from publication doi:10.1101/2024.04.24.590854 (bioRxiv, 2024).
